According to the Immune Epitope Database (IEDB):

Tests used:
Test in all cases: IEDB peptide-MHC binding, purified MHC/competitive/radioactivity; filed as Kd, often an IC50 or EC50 that approximates it; ≥ and ≤ were set here for values at or beyond the usual limits of such assays
[1] = target: HLA-A*02:02
[2] = target: HLA-A*02:03
[3] = target: HLA-A*02:06
[4] = target: HLA-A*68:01
[5] = target: HLA-A*11:01
[6] = target: HLA-A*03:01
[7] = target: HLA-A*33:01
[8] = target: HLA-A*31:01
[9] = source organism: Mammarenavirus juninense
[10] = source organism: Dengue virus 2 16681-PDK53
[11] = source organism: Vaccinia virus WR
[12] = source organism: Mammarenavirus guanaritoense
[13] = source organism: Dengue virus 2 Jamaica/1409/1983
[14] = source organism: SARS coronavirus Tor2
[15] = source organism: Lassa virus Josiah
[16] = source organism: Mammarenavirus whitewaterense

KSGLFQFFV showed a Kd [1, 9] of 23.1 nM, a Kd [2, 9] of 1550 nM and a Kd [3, 9] of 8.06 nM.

For KVSCTILAV, the Kd [2, 10] was 57.7 nM and the Kd [3, 10] was 18.2 nM.

KVYNGIFVDT gave a Kd [1, 11] of 111 nM, a Kd [2, 11] of 1440 nM and a Kd [3, 11] of 16400 nM.

In the case of LALTDVEKRI, the Kd [1, 11] is reported as 199 nM, the Kd [2, 11] is reported as 403 nM and the Kd [3, 11] is reported as 2410 nM.

LAYYNSCML was tested, and the Kd [1, 11] was 12800 nM, the Kd [2, 11] was 15500 nM and the Kd [3, 11] was no less than 21500 nM.

With LCFWSAIFFT the Kd [1, 12] was 2600 nM, the Kd [2, 12] was no less than 30300 nM and the Kd [3, 12] was no less than 34500 nM.

In the case of LLATVTGGI, the Kd [2, 13] is reported as 3.59 nM.

LLFLVLIML gave a Kd [1, 14] of 154 nM, a Kd [2, 14] of 1370 nM and a Kd [3, 14] of 573 nM.

LMMATIGIA showed a Kd [2, 13] of 0.49 nM.

Sequence MLTNAISSRV has a Kd [1, 11] of 53 nM, a Kd [2, 11] of 0.105 nM and a Kd [3, 11] of 224 nM.

In the case of MLWCKDGHV, the Kd [1, 14] is reported as 10.3 nM, the Kd [2, 14] is reported as 11 nM and the Kd [3, 14] is reported as 362 nM.

MMQNDYGGM gave a Kd [1, 11] of 1080 nM, a Kd [2, 11] of 2740 nM and a Kd [3, 11] of 1660 nM.

MSIQLINKAV gave a Kd [1, 15] of 11300 nM, a Kd [2, 15] of 1790 nM and a Kd [3, 15] of 619 nM.

Sequence NQLTYVVIAI has a Kd [3, 13] of 23.6 nM.

PLPNFSSLNL was tested, and the Kd ([3]; source organism: Homo sapiens) was no less than 56600 nM.

PLPVSRLVSL gave a Kd ([2]; source organism: Homo sapiens) of 16700 nM.

QISRVNDLNR showed a Kd [4, 11] of 88 nM, a Kd [5, 11] of 335 nM and a Kd [6, 11] of 1940 nM. It also gave a Kd [7, 11] of 913 nM and a Kd [8, 11] of 122 nM.

RFVKFNDYR showed a Kd [4, 11] of 38.2 nM, a Kd [5, 11] of 14800 nM and a Kd [6, 11] of 19800 nM. For the same sequence, the Kd [7, 11] was 237 nM and the Kd [8, 11] was no more than 1 nM.

RLGLVLDDY was tested, and the Kd [4, 11] was no less than 44500 nM, the Kd [5, 11] was 3560 nM and the Kd [6, 11] was 11.1 nM. It also gave a Kd [7, 11] of no less than 77700 nM and a Kd [8, 11] of no less than 77900 nM.

RVVVQIDPEY showed a Kd [4, 11] of 1190 nM, a Kd [5, 11] of no less than 23400 nM and a Kd [6, 11] of 14200 nM. For the same sequence, the Kd [7, 11] was no less than 70000 nM and the Kd [8, 11] was no less than 70000 nM.

With SAEDNYLAK the Kd [4, 11] was 11400 nM, the Kd [5, 11] was 56.1 nM and the Kd [6, 11] was no less than 26300 nM. For the same sequence, the Kd [7, 11] was no less than 77700 nM and the Kd [8, 11] was no less than 53500 nM.

In the case of SAGFSLWIYK, the Kd [4, 14] is reported as 31.1 nM, the Kd [5, 14] is reported as 0.0935 nM and the Kd [6, 14] is reported as 75.3 nM. It also gave a Kd [7, 14] of 3430 nM and a Kd [8, 14] of 52.1 nM.

For SCSYKIGHH, the Kd [4, 16] was no less than 77600 nM, the Kd [5, 16] was no less than 64800 nM and the Kd [6, 16] was no less than 78000 nM. For the same sequence, the Kd [7, 16] was no less than 77700 nM and the Kd [8, 16] was no less than 45800 nM.

With SFKSINKVY the Kd [4, 11] was 6900 nM, the Kd [5, 11] was 2770 nM and the Kd [6, 11] was 1830 nM. It also gave a Kd [7, 11] of no less than 77700 nM and a Kd [8, 11] of 2130 nM.
